Amyloid nucleation score data for 139 substances are collected here from the supplement of paper PMC12042874.

± gives the uncertainty stated by the source.

The data set in a line: amyloid nucleation score (Sup35N fusion, yeast selection) (log enrichment); library NNK1; higher = more nucleation; inactive = no reads after selection. The procedure, abridged: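 Yeast lacking psi expressed peptides of 20 random codons fused to Sup35N, received 100 μM copper sulfate for 24 hours, and were then grown for 7 days at 30°C on medium lacking adenine and uracil. Illumina sequencing of input and output plasmid inserts provided the reads. Nucleation scores are DiMSum log enrichments of output over input, centred on the mode of non-aggregating sequences. Any sequence with under 100 input reads was excluded.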
In the case of VLMLCCMGSTRVCMTYMPDN, the amyloid nucleation score worked out at 6.885 ± 0.064.

Substance VLMRSEMESRFNEGRSTQGC returned an amyloid nucleation score of 0.361 ± 0.3.

Substance VLPFSLFAYAACFVLTLTYV gave an amyloid nucleation score of 0.274 ± 1.1.

Substance VLRKTFGCFETMV yielded an amyloid nucleation score of 3.92 ± 0.073.

VLSAYSFYVSIWYNFSFIYG registered an amyloid nucleation score of 0.689 ± 0.57.

Regarding VLSCLPHAINFFYPSRSK, the amyloid nucleation score came out at 1.05 ± 0.35.

Substance VLSVNAV registered an amyloid nucleation score of -0.482 ± 0.51.

Substance VLTCKE had an amyloid nucleation score of -1.55 ± 1.2.

The substance VLTEGYLFTSLIDL gave an amyloid nucleation score of -0.22 ± 0.43.

Take VLYFYFFIQIRVGIQYSVKN: the amyloid nucleation score came to 2.41 ± 0.41.

For VLYGADDVLVRVSTCVYMGG, the amyloid nucleation score was -0.136 ± 0.25.

Consider VLYQRVRTGTTYGRARRLDV, for which the amyloid nucleation score is -0.622 ± 1.7.

The substance VMCQCYSGGM had an amyloid nucleation score of 1.31 ± 0.4.

Consider VMCVTIMSVFWNGLRNVEAM, for which the amyloid nucleation score turned out to be 0.977 ± 0.18.

As to VMDQLIV, the amyloid nucleation score entry is “inactive”.

Turning to VMKGSRHVRDKRALYYDILR, the amyloid nucleation score is -0.308 ± 0.59.

Substance VMLMCYPLTRPRCGTERNMF had an amyloid nucleation score of 0.091 ± 0.49.

In turn, VNGYFAASDECFWCRSAGPN yielded an amyloid nucleation score of 0.555 ± 0.34.

Substance VNHIWWEFQGVSAYSNFRRD displayed an amyloid nucleation score of -0.417 ± 1.5.

As for VNNFIDCSSFCVYYLFKPGR, the amyloid nucleation score worked out at 7.671 ± 0.051.

Consider VNTMPILFFMPCVMKLSV, for which the amyloid nucleation score was found to be 1.53 ± 0.57.

Substance VNYFARSGASKICML returned an amyloid nucleation score of -0.366 ± 0.88.

Substance VPANEFCMADIMHRANRMLG came in with an amyloid nucleation score of 0.758 ± 0.71.

Consider VPILFRLLVNTSPYNGPLGL, for which the amyloid nucleation score is -0.042 ± 0.56.

With VPRLLYQFLTSHTVVDSPEV, the amyloid nucleation score is -0.069 ± 0.56.

For the substance VPSLRYYLYGSFFVI, the amyloid nucleation score is -2.49 ± 1.7.

In the case of VQFSLGALFWWPWGR, the amyloid nucleation score is 2.27 ± 0.22.

The substance VQSIRRKVLETRQERVGAQR returned an amyloid nucleation score of 0.04 ± 0.42.

VRAGH showed an amyloid nucleation score of 0.087 ± 0.27.

Regarding VRARVLSKTIMMTTYERHLV, the amyloid nucleation score was -0.691 ± 1.7.

With VRCTFLVKVDWTFYKASRPR, the amyloid nucleation score was 0.087 ± 0.47.

Take VRFFM: the amyloid nucleation score was -0.422 ± 0.45.

VRFKGMWHKQ displayed an amyloid nucleation score of -1.04 ± 1.1.

On to VRGLGGW, for which the amyloid nucleation score is -0.134 ± 0.97.

The substance VRGYGGVC yielded an amyloid nucleation score of -0.296 ± 0.3.

In turn, VRIINMFVDPNIIL displayed an amyloid nucleation score of 6.818 ± 0.044.

Take VRIRPISPMPDYSPPANWSK: the amyloid nucleation score turned out to be 0.041 ± 0.47.

VRISVCNYWFMVVGMAF came in with an amyloid nucleation score of 0.251 ± 0.31.

VRLFMYMCIWMFMSDSSIWG showed an amyloid nucleation score of -0.348 ± 0.64.

In turn, VRLLEHSANPSMGKMNMNVG yielded an amyloid nucleation score of 0.231 ± 0.74.

In turn, VRLTSINSLCIVGDTQGST displayed an amyloid nucleation score of 0.945 ± 0.73.

In turn, VRMIFVQCWKCTESNFCERN returned an amyloid nucleation score of -0.174 ± 0.66.

The substance VRRCFFVYSVR registered an amyloid nucleation score of -0.979 ± 1.2.

VRTSVCCTRALAMLRSLWVT: the amyloid nucleation score is -0.625 ± 0.73.

In turn, VRVPCDIAIYMYGGLKALLS gave an amyloid nucleation score of -0.245 ± 1.3.

Regarding VRVWTYLAWVQYLPYQMGLF, the amyloid nucleation score entry was “inactive”.

VRWCYILQQ: the amyloid nucleation score entry is “inactive”.

For the substance VRWDPVRRIWFALR, the amyloid nucleation score result was “inactive”.

Consider VRYSGNMLSSTSVNGIFGHE, for which the amyloid nucleation score was 0.067 ± 0.28.

In the case of VSCANMNIDELTWHVDWWCL, the amyloid nucleation score was 7.597 ± 0.047.

Substance VSCMRDIIRLCYQQTPICKF came in with an amyloid nucleation score of -0.272 ± 0.84.

As to VSCWLQISDLRAVAWPLRSF, the amyloid nucleation score came to 0.588 ± 0.21.

Turning to VSDRRTGVLRIHCNFKVGLS, the amyloid nucleation score was determined as 1.89 ± 0.16.

VSEDVFLWVKLSLTAGSEGR displayed an amyloid nucleation score of -0.973 ± 0.4.

With VSFGIFMNESYV, the amyloid nucleation score worked out at 1.52 ± 0.098.

Consider VSFNGFLHLFWVFILLNSPW, for which the amyloid nucleation score was found to be 6.98 ± 0.085.

As for VSGIVPDDLSVFDVHSKYV, the amyloid nucleation score is 0.455 ± 0.33.

In the case of VSGSVFTNMIANILSTSRYV, the amyloid nucleation score was -0.179 ± 1.6.

For VSHYGCFQTVCDLRVGGPPE, the amyloid nucleation score is -1.4 ± 2.4.

VSKTTRSCCWELFEA registered an amyloid nucleation score of -0.052 ± 0.42.

With VSLCAQRYVIMMSIVRTKSL, the amyloid nucleation score was determined as 0.105 ± 0.22.

The substance VSLCEMNRSFCWDAGASGRV showed an amyloid nucleation score of 0.621 ± 1.

In turn, VSNTSLYPDKESMLRGTEWE gave an amyloid nucleation score of 0.674 ± 0.77.

Substance VSPIMFAYSMSCMSFYGEHG had an amyloid nucleation score of 5.04 ± 0.1.

VSRWYVILNML registered an amyloid nucleation score of 4.03 ± 0.11.

As for VSTSHCTSFVFNIYCKYDSR, the amyloid nucleation score is 8.542 ± 0.052.

In turn, VSTSNSYDSSQHDLDFRQSG yielded an amyloid nucleation score of -0.162 ± 0.63.

As for VSTVLARSVWLWDTPFLRSE, the amyloid nucleation score was -0.079 ± 0.34.

VSYNVRIGWAVYN had an amyloid nucleation score of 0.89 ± 0.27.

The substance VTARTRSDS registered an amyloid nucleation score of 0.55 ± 0.55.

Consider VTDEFCPVLSGG, for which the amyloid nucleation score amounted to 0.317 ± 0.52.

Take VTFRIVRVLPMEPVRTRAGD: the amyloid nucleation score was -0.972 ± 0.54.

VTIHETCRVWRFVRTDRRWG displayed an amyloid nucleation score of 0.553 ± 0.46.

In turn, VTKLNMILMVGTVYGSNIGV registered an amyloid nucleation score of 6.782 ± 0.05.

For the substance VTNYGYDLFVLILDGAMNLS, the amyloid nucleation score is 0.407 ± 0.51.

In the case of VTRYRTLTRHWWS, the amyloid nucleation score turned out to be 0.277 ± 0.39.

In turn, VTSYFKIRLCFPRGMASCTR displayed an amyloid nucleation score of 3.37 ± 0.19.

Regarding VTYSYASGDGPDSLWCT, the amyloid nucleation score is -0.026 ± 0.84.

VTYVMCFAMEMMVGRCRWGG: the amyloid nucleation score is -0.029 ± 1.4.

VVESTGFIWAGEWVLWIEFS registered an amyloid nucleation score of -0.356 ± 0.82.

The substance VVIVGAGIPWILGESAVFRC came in with an amyloid nucleation score of 0.218 ± 0.36.

On to VVKSSTPSSDPTTASRIWLL, for which the amyloid nucleation score is -0.26 ± 0.43.

VVLTYSWGAYRY displayed an amyloid nucleation score of 1.26 ± 0.23.

In the case of VVMLSVSPLTIHRGSFRDCS, the amyloid nucleation score was 2.97 ± 0.1.

VVNLWTQADIMRSSCRLKHV showed an amyloid nucleation score of 0.074 ± 0.19.

In turn, VVQFKMWACQTFFMDLRNTM displayed an amyloid nucleation score of 1.56 ± 0.11.

Turning to VVRLG, the amyloid nucleation score turned out to be 0.124 ± 1.

In turn, VVVCAVHDDYSINRAIEDER came in with an amyloid nucleation score of -0.183 ± 0.4.

Substance VVVVDDHDDVALSFIHTMSR displayed an amyloid nucleation score of 0.164 ± 0.43.

The substance VVVVIFDFRCNKLQ gave an amyloid nucleation score of 2.28 ± 0.2.

Take VVVYGCLYILVARRYDTIAW: the amyloid nucleation score came to 0.493 ± 0.84.

Regarding VVYHAFDALLNLCRSSYRGH, the amyloid nucleation score was -0.811 ± 0.52.

In the case of VWCVVVCMSRQGKYTLCRWR, the amyloid nucleation score worked out at 0.444 ± 0.97.

In turn, VWDRWDSGHVCYSNMAVWNV gave an amyloid nucleation score of 0.536 ± 0.36.

For VWELGPFCDLEVRYV, the amyloid nucleation score was 0.531 ± 0.52.

In turn, VWFIVLSRGQFHICFYGQG returned an amyloid nucleation score of -1.32 ± 2.7.

Consider VWFNPYLNDRSREGGRVVWM, for which the amyloid nucleation score is 0.099 ± 0.27.

VWGQRGSGSNSCLEW: the amyloid nucleation score came out at 0.15 ± 0.68.

VWKDRPEMYSCGHCIEMRAE: the amyloid nucleation score came out at 0.039 ± 0.37.

Consider VWLRNTKEMCFV, for which the amyloid nucleation score was 1.64 ± 0.11.

For VWMLTMSAFKVYWLNFINYA, the amyloid nucleation score is -0.037 ± 0.22.

For VWNYVYGMMWCM, the amyloid nucleation score turned out to be 5.54 ± 0.09.

For the substance VYASGWAQISVTGGTWLRGD, the amyloid nucleation score was 0.131 ± 0.42.

As for VYDLS, the amyloid nucleation score was -0.006 ± 0.72.

The substance VYFSSLVIFWYLFLYSFEYL returned an amyloid nucleation score of 0.689 ± 0.48.

In turn, VYGMITIDNRQVRVVLGFRS registered an amyloid nucleation score of -0.549 ± 0.71.

With VYGSIKSVEANTVWML, the amyloid nucleation score was found to be 3.32 ± 0.16.

VYGSPPNMWNVV registered an amyloid nucleation score of 0.066 ± 0.79.

VYHSCSDMCFKAFQVNTYQC gave an amyloid nucleation score of 1.16 ± 0.66.

In the case of VYLKEEHGKFAGGPSPRCKP, the amyloid nucleation score was found to be 0.274 ± 0.46.

Substance VYPCACVFYSLGVGLQNEET came in with an amyloid nucleation score of 6.27 ± 0.089.

Regarding VYQVNVGCWSCGCRTVICNR, the amyloid nucleation score is 7.932 ± 0.045.

VYTDLKGENAGGIIYCGIGS showed an amyloid nucleation score of 0.445 ± 0.26.

VYTKYICWGCVNAQRFDHGT yielded an amyloid nucleation score of 8.269 ± 0.049.

Regarding VYVDVSFPPPVFEWCGPQIT, the amyloid nucleation score was determined as 0.392 ± 0.69.

On to VYVFLADNGSDELLMLVLTG, for which the amyloid nucleation score was determined as 0.12 ± 0.28.

The substance VYVSFTRNCVGCIGLD had an amyloid nucleation score of 4.62 ± 0.061.

For WALISYGVWGTRTADLCRCH, the amyloid nucleation score was found to be 0.907 ± 0.65.

WARCTGIMFGS returned an amyloid nucleation score of 0.027 ± 0.97.

With WCCHAGAMFAMAKSL, the amyloid nucleation score was determined as 0.468 ± 0.62.

Substance WCDGYVMFLDTNCIRINHIL gave an amyloid nucleation score of -0.162 ± 0.24.

The substance WCSKYCMMPSFPTMSRPVPL came in with an amyloid nucleation score of -0.426 ± 0.44.

The substance WDEFGVDEWSYWLLLWYVAR showed an amyloid nucleation score of 0.799 ± 0.97.

For the substance WDLCISINYSVFLNLACSV, the amyloid nucleation score amounted to 3.25 ± 0.098.

With WENTSRKYVAANDCARMRLG, the amyloid nucleation score was -0.281 ± 0.41.

In turn, WEPTR came in with an amyloid nucleation score of 0.174 ± 0.59.

In turn, WEVVMWRYCAPRTGVLPQKP had an amyloid nucleation score of -0.535 ± 1.2.

Turning to WFCVHKTVSLDMASVDRKGQ, the amyloid nucleation score worked out at 4.8 ± 0.088.

In turn, WFGDGSCKRWLWGMKVTPED displayed an amyloid nucleation score of -0.518 ± 0.69.

WFGTHCVLSYVSTFWSLQSV came in with an amyloid nucleation score of -0.275 ± 0.24.

Turning to WFICKYNQFDHDVLFSVSTA, the amyloid nucleation score came out at 1.92 ± 0.68.

Turning to WFIRARFTLGKRNELREVI, the amyloid nucleation score was 0.647 ± 0.64.

In the case of WFLCSSRFISLLQ, the amyloid nucleation score is -1.49 ± 0.47.

In the case of WFSDMTAFLC, the amyloid nucleation score entry was “inactive”.

In turn, WFWELGN displayed an amyloid nucleation score of 0.201 ± 0.28.

WFWMYGKGKESQSVVNGGGT displayed an amyloid nucleation score of 0.861 ± 0.53.

WGAHCGWQF gave an amyloid nucleation score of -0.749 ± 1.3.

For the substance WGEFYVNSSNFVNMQSVWQQ, the amyloid nucleation score was -0.257 ± 1.7.

Turning to WGNLASRLQALDQVRRSGSM, the amyloid nucleation score was -0.56 ± 0.57.
